In US20170258948A1 (Bristol-Myers Squibb, published 2017):

Experiments:
[1] = molecular target: T1, human PD-L1 (Programmed Death Ligand-1), protein used in Biacore and ELISA (human, UniProt Q9NZQ7 19-239); test: SPR (Biacore), human PD-L1
T1 construct: also called hPD-L1; CD274

[2] = molecular target: T1, human PD-L1 (Programmed Death …); test: summary sentence on the binding data (Biacore); limit tied to A02 by Table 2
[3] = molecular target: T2, human PD-L1 expressed on cells (hPD-L1-positive L2987 human lung carcinoma cells); L2987 xenograft and human … (human, UniProt Q9NZQ7 19-290); test: cell binding to human PD-L1 positive L2987 cells; Cys-capped form; Cys-capped form
T2 construct: whole, on cells; also called hPD-L1(+) L2987; PD-L1 positive cells L2987

[4] = molecular target: T1, human PD-L1 (Programmed Death …); test: ELISA, inhibition of binding of human CD80 (B7-1) to human PD-L1
cyno PD-L1 = molecular target: T3, cyno PD-L1 (cyno (cynomolgus monkey), UniProt G7PSE7 19-239); test: SPR (Biacore), cyno PD-L1
T3 construct: also called cynomolgus PD-L1

[5] = molecular target: T1, human PD-L1 (Programmed Death …); test: method not stated (Table 1, binding properties of anti-PD-L1 Adnectins)
[6] = molecular target: T1, human PD-L1 (Programmed Death …); test: summary sentence on the binding data (Biacore); limit tied to E01 by Table 2
[7] = molecular target: T2, human PD-L1 expressed on cells …; test: radiotracer binding to cells on ice, gamma counting
Description: After the incubation period, cell samples were centrifuged at 200×g and the supernatant was discarded. Cell pellets were resuspended in 1 mL PBS+0.5% BSA and the wash procedure repeated for a total of 3 washes. Following the final wash, cells were again centrifuged at 200×g and the supernatant was discarded. The radioactivity of the remaining cell pellets was then measured by gamma counter.

[8] = molecular target: T2, human PD-L1 expressed on cells …; test: cell-based or functional assay

T2 sequence (Q9NZQ7 19-290): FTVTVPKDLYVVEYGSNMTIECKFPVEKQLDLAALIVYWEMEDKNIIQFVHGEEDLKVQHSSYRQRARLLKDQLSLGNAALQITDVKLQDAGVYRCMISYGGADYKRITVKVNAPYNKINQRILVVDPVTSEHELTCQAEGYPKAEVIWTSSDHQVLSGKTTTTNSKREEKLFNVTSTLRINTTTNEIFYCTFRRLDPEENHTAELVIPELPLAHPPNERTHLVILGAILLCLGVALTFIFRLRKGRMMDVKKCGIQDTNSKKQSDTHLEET
T3 sequence (G7PSE7 entry or part of it): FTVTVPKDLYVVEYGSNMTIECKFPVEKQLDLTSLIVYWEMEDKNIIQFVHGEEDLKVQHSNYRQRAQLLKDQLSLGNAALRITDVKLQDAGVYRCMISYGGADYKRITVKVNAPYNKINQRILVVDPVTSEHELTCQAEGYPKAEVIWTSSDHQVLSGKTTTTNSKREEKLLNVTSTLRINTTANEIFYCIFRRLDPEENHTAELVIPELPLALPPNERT
T1 sequence (Q9NZQ7 19-239 limits assumed): as the sequence (G7PSE7 entry or part of it) above, with T33A, S34A, N62S, Q68R, R82Q, L173F, A185T, I192T, L215H counted along it

| Kd (cyno PD-L1) [pM] | Binder | Kd [1] [pM] | koff [1] [s⁻¹] | kon [1] [M⁻¹ s⁻¹] | further results |
| --- | --- | --- | --- | --- | --- |
| – | ADX_5322_A02 (designed binder) MGVSDVPRDLEVVAATPTSLLISWSYDGPIDRYYRITYGETGGNSPVQEFTVPPDQKTATISGLKPGVDYTITVYAVRLEEAHYNREFPISINYRTPCHHHHHH | 228 | 0.00057 | 2.5e+06 | Kd [2]: < 1000 pM |
| – | ADX_5322_A02 (Cys-Capped) (designed binder, Cys-Capped (so in the source); capping group not stated) MGVSDVPRDLEVVAATPTSLLISWSYDGPIDRYYRITYGETGGNSPVQEFTVPPDQKTATISGLKPGVDYTITVYAVRLEEAHYNREFPISINYRTPCHHHHHH | – | – | – | EC50 [3]: 430 pM |
| 800 | ATI-965 (designed binder, 10Fn3 Adnectin) MGVSDVPRDLEVVAATPTSLLISWTAYDSVDKYYRITYGETGGNSPVQEFTVGPRHHTATISGLKPGVDYTITVYAVYHTEPGYHAHMPISINYRTEIDKPSQHHHHHH | 710 | 0.00033 | 460000 | EC50 [4]: 210 pM |
| – | ATI-1421E04 (designed binder, 10Fn3 Adnectin; also called AT1-1421E04) MGVSDVPRDLEVVAATPTSLLISWSYNGPIEYRITYGETGGNSPVQEFTVPDQQATISGLKPGVDYTITVYALEEAHYSRQSISINYRTEIDKPSQHHHHHH | – | – | – | Kd [5]: 5600 pM |
| 110 | ATI-968 (designed binder, 10Fn3 Adnectin; also called ADX_1760_C01) MGVSDVPRDLEVVAATPTSLLISWIAPFYNVIYYRITYGETGGNSPVQEFTVPGTGYTATISGLKPGVDYTITVYAVTDGASIASYAFPISINYRTEIDKPSQHHHHHH | 160 | 0.00012 | 750000 | EC50 [4]: 56 pM |
| – | ADX_5417_E01 (designed binder) MGVSDVPRDLEVVAATPTSLLISWRAQLSPSFYYRITYGETGGNSPVQEFTVPNDVMTATISGLKPGVDYTITVYAVTTHGVYFYSPISINYRTPCHHHHHH | 13 | 0.00026 | 2e+07 | Kd [6]: < 100 pM |
| – | ^64Cu-E01-NODAGA (designed binder, C-terminal cysteine (of the added PC) linked to maleimide-NODAGA chelating ^64Cu, Modified E01 (ADX_5417_E01 with N leader and C-terminal PC); also called ^64Cu-E01 anti-PD-L1 Adnectin) GVSDVPRDLEVVAATPTSLLISWRAQLSPSFYYRITYGETGGNSPVQEFTVPNDVMTATISGLKPGVDYTITVYAVTTHGVYFYSPISINYRTPC | – | – | – | fold higher cell associated radioactivity against hPD-L1-negative HT-29 cells [7]: 44.6 fold |
| – | ATI-1420D05 (designed binder, 10Fn3 Adnectin) MGVSDVPRDLEVVAATPTSLLISWTAYYSTIKYRITYGETGGNSPVQEFTVGPKHHATISGLKPGVDYTITVYAYNTKPGYHAHQISINYRTEIDKPSQHHHHHH | – | – | – | Kd [5]: 9500 pM |
| – | ATI-1420B09 (designed binder, 10Fn3 Adnectin) MGVSDVPRDLEVVAATPTSLLISWHKFSSLMSYRITYGETGGNSPVQEFTVGSVNATISGLKPGVDYTITVYAIHNVGFISINYRTEIDKPSQHHHHHH | – | – | – | Kd [5]: 2500 pM |
| 140 | ATI-964 (designed binder, 10Fn3 Adnectin; also called parent of ADX_5322_A02) MGVSDVPRDLEVVAATPTSLLISWSYDGSIERYYRITYGETGGNSPVQEFTVPPDQKTATISGLKPGVDYTITVYAVRLEEAHYYRESPISINYRTEIDKPSQHHHHHH | 210 | 7.7e-05 | 360000 | EC50 [4]: 41 pM |
| 60 | ATI-967 (designed binder, 10Fn3 Adnectin; also called parent of ADX_5417_E01) MGVSDVPRDLEVVAATPTSLLISWQGQLSPSFYYRITYGETGGNSPVQEFTVPVASGTATISGLKPGVDYTITVYAVTSHGIYFYAPISINYRTEIDKPSQHHHHHH | 32 | 6.7e-05 | 2.1e+06 | – |
| 38 | ATI-966 (designed binder, 10Fn3 Adnectin) MGVSDVPRDLEVVAATPTSLLISWHRFSSIMAYYRITYGETGGNSPVQEFTVAGSVNTATISGLKPGVDYTITVYAVTIHNVSFPISINYRTEIDKPSQHHHHHH | 28 | 6.9e-05 | 2.5e+06 | EC50 [4]: 28 pM |
| – | ^64Cu-A02-NODAGA (designed binder, C-terminal cysteine (of the added PC) linked to maleimide-NODAGA chelating ^64Cu) GVSDVPRDLEVVAATPTSLLISWSYDGPIDRYYRITYGETGGNSPVQEFTVPPDQKTATISGLKPGVDYTITVYAVRLEEAHYNREFPISINYRTPC | – | – | – | PET radiotracer uptake in hPD-L1(+) L2987 xenografts relative to hPD-L1(-) HT-29 xenografts in mice (final 10 minutes of the 2 h time-activity curve) [8]: 3.05 fold |
| – | ^18F-A02 Adnectin ([^18F]-A02-4PEG-DBCO-FPPEGA) (designed binder, C-terminal cysteine linked to Maleamide-DBCO-FFP(18F) (maleimide-PEG4-DBCO clicked with [^18F]-FPPEGA)) GVSDVPRDLEVVAATPTSLLISWSYDGPIDRYYRITYGETGGNSPVQEFTVPPDQKTATISGLKPGVDYTITVYAVRLEEAHYNREFPISINYRTPC | – | – | – | maximum radiotracer uptake ratio in hPD-L1(+) L2987 xenografts vs. hPD-L1(-) HT-29 xenografts (PET, mice) [8]: 3.53 ratio |
| – | cold (unlabeled) A02 Adnectin (designed binder) EVVAATPTSLLISWSYDGPIDRYYRITYGETGGNSPVQEFTVPPDQKTATISGLKPGVDYTITVYAVRLEEAHYNREFPISINYRT | – | – | – | PET uptake of ^64Cu-A02 in hPD-L1(+) L2987 relative to hPD-L1(-) HT-29 xenografts when co-injected with 3 mg/kg unlabeled A02 Adnectin [8]: 1.04 fold |
